Where “and” joins values, the source holds several entries; their conditions need not be identical. Identical values can stand only once. Like-named read-outs stand apart in the source and are kept apart here. Each block holds one binder with its values, some of them ahead of it.
Assays:
[1] = target: T1, human TIM-3 ECD with 6-His tag (hu TIM-3-His6) (human, UniProt Q8TDQ0 22-200); assay: SPR (Biacore)
T1 construct: Novoprotein Cat# C356; the entry includes the His tag; also called hTIM3-His; human TIM3-His6

cyno TIM-3-His6 [2] = target: T2, cyno TIM-3-His6 (cynomolgus monkey); assay: SPR (Biacore)
T2 construct: Made in HEK293 cells; not shown: 6-His tag
T2 chain: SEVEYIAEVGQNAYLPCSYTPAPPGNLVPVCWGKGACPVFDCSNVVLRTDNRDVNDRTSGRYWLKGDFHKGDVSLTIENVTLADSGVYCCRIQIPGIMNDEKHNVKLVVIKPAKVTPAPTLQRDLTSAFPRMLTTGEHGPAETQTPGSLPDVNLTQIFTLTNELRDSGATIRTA

[3] = target: T1, human TIM-3 ECD with 6-His tag (hu …); assay: ELISA, antigen coated
cyno TIM-3-His6 [4] = target: T2, cyno TIM-3-His6; assay: ELISA, antigen coated
cyno TIM-3-muFc = target: T3, cyno TIM-3-muFc (cynomolgus monkey); assay: ELISA, antigen coated
T3 construct: Made in HEK293 cells; also called cyno TIM3-mFc; not shown: murine Fc
T3 chain: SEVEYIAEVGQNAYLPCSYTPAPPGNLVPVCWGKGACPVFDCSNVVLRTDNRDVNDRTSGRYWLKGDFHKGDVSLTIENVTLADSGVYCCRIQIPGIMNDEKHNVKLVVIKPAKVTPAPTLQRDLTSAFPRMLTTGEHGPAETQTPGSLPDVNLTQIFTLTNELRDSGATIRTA

[5] = target: T4, human TIM-3 on huTIM-3-CHO-S cells (human, UniProt Q8TDQ0 22-202); assay: cell-based or functional assay
[6] = target: T4, human TIM-3 on huTIM-3-CHO-S cells; assay: FACS on CHO-S-hTIM-3 cells
[7] = target: T4, human TIM-3 on huTIM-3-CHO-S cells; assay: flow cytometry on CHO-S-hTIM3 cells
[8] = target: T5, cyno TIM-3 on cynoTIM-3-Expi293F cells (cynomolgus monkey); assay: flow cytometry on 293F-cynoTIM-3 cells
T5 construct: Membrane-anchored cyno TIM-3 ECD (XP_005558438) transiently expressed on Expi293F cells; not shown: membrane anchor of the expression vector, not described
T5 chain: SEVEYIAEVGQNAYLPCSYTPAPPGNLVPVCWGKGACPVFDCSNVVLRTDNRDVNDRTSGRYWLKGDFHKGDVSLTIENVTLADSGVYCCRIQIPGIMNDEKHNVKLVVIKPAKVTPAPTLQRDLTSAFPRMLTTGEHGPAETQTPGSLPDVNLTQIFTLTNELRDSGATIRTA

[9] = target: T1, human TIM-3 ECD with 6-His tag (hu …); assay: SPR, antibody captured, TIM-3 as analyte
cyno TIM-3-His6 [10] = target: T2, cyno TIM-3-His6; assay: SPR, antibody captured, TIM-3 as analyte
[11] = target: T1, human TIM-3 ECD with 6-His tag (hu …); assay: SPR (Biacore), relative to 3903E11 (VH1.0, VL1.0)
[12] = target: T6, wild-type TIM-3 (hu TIM-3), HEK-expressed (human, UniProt Q8TDQ0 22-202, limits assumed); assay: SPR
T6 construct: Soluble protein of the mutagenesis study

[13] = target: T6, wild-type TIM-3 (hu TIM-3), …; assay: SPR; remark: listed apart in the source
FcRn = FcRn (UniProt P55899 24-297; P61769 21-119, limits assumed); assay: BLI (Octet), steady state
FCγRI (CD64) [14] = target: T7, FCγRI (CD64) (UniProt P12314 16-288); assay: BLI (Octet), antibody on FAB2G tips
T7 construct: Bought

FCγRIIa (CD32a)_H131 [15] = target: T8, FCγRIIa (CD32a)_H131 (UniProt P12318 36-218, limits assumed); assay: BLI (Octet), antibody on FAB2G tips
T8 construct: Bought
T8 sequence (looked up): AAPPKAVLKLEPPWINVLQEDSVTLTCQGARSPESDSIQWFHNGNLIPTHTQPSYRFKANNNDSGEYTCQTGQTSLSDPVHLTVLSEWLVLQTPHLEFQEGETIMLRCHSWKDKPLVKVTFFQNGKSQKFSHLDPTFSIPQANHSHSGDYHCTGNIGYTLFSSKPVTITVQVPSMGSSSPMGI

FCγRIIIa (CD16a)_V158 [16] = target: T9, FCγRIIIa (CD16a)_V158 (UniProt P08637 17-208); assay: BLI (Octet), antibody on FAB2G tips
T9 construct: Bought

[17] = target: T10, human TIM-3 ECD fused to human IgG1 Fc domain (huTIM-3-Fc) (human, UniProt Q8TDQ0 22-202); assay: competition ELISA: huTIM-3-Fc-biotin (0.5 µg/ml) binding to coated galectin-9
T10 construct: extracellular domain; Bought; Biotinylated (Sulfo-NHS-LC-Biotin) in the galectin-9 ELISAs; also called Human-TIM3-biotin; huTIM-3-Fc-biotin; not shown: human IgG1 Fc domain

[18] = target: T10, human TIM-3 ECD fused to human IgG1 Fc …; assay: ELISA: plate-bound rhTIM-3-Fc pre-incubated with antibody, His-tagged CEACAM1 detected
[19] = target: T11, human TIM-3 on primary human blood cells (CD14+ monocytes in whole blood; PBMCs) (human, UniProt Q8TDQ0 22-301); assay: target occupancy on CD14+ monocytes in human whole blood, flow cytometry; free TIM-3 detected with competing anti-TIM-3(2E2)-APC
T11 construct: whole, on cells; Endogenous receptor on donor cells; also called TIM-3 on CD14+ monocytes

[20] = target: T11, human TIM-3 on primary human blood …; assay: flow cytometry on fresh human whole blood, CD14+ monocytes; unoccupied TIM-3 detected with the competing anti-TIM-3 (2E2)-APC; donor KP46233
[21] = target: T11, human TIM-3 on primary human blood …; assay: flow cytometry on fresh human whole blood, CD14+ monocytes; unoccupied TIM-3 detected with the competing anti-TIM-3 (2E2)-APC; donors KP46231, KP46315, KP46318 (not separated)
[22] = target: T1, human TIM-3 ECD with 6-His tag (hu …); assay: ELISA, antigen coated; remark: listed apart in the source
cyno TIM-3-His6 [23] = target: T2, cyno TIM-3-His6; assay: ELISA, antigen coated
[24] = target: T12, marmoset TIM-3 ECD with 6-His tag (marmoset TIM-3-His6) (marmoset); assay: ELISA, antigen coated
T12 construct: Novoprotein Cat# CM64; the entry includes the His tag
T12 chain: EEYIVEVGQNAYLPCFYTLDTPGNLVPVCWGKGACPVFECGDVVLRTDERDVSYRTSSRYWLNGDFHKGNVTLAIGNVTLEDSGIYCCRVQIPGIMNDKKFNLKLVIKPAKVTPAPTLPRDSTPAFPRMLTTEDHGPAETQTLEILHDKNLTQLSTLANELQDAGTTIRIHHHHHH

FCγRIIa (CD32a)_H131 [25] = target: T8, FCγRIIa (CD32a)_H131; assay: BLI (Octet), steady state
FCγRIIIa (CD16a)_V158 [26] = target: T9, FCγRIIIa (CD16a)_V158; assay: BLI (Octet), steady state
[27] = target: T4, human TIM-3 on huTIM-3-CHO-S cells; assay: flow cytometry on CHO-S-hTIM-3 cells
[28] = target: T1, human TIM-3 ECD with 6-His tag (hu …); assay: SPR, antibody captured, TIM-3 as analyte; remark: listed apart in the source
cyno TIM-3-His6 [29] = target: T2, cyno TIM-3-His6; assay: SPR, antibody captured, TIM-3 as analyte
[30] = target: T12, marmoset TIM-3 ECD with 6-His tag …; assay: SPR, antibody captured, TIM-3 as analyte
FCγRI (CD64) [31] = target: T7, FCγRI (CD64); assay: BLI (Octet), antibody on FAB2G tips, kinetic fit
[32] = target: T10, human TIM-3 ECD fused to human IgG1 Fc …; assay: competition ELISA: huTIM-3-Fc-biotin (1 µg/ml) binding to coated galectin-9

Kd [1]: 3.5 nM | Kd (cyno TIM-3-His6 [2]): 6.9 nM | EC50 [3]: 0.01 nM | EC50 (cyno TIM-3-His6 [4]): 0.01 nM | EC50 (cyno TIM-3-muFc): 0.01 nM | ADCC (51Cr release), Donor 1, EC50 [5]: 0.24 nM | ADCC (51Cr release), Donor 2, EC50 [5]: 0.11 nM | MFI at 0.1 µg/ml [6]: 137 MFI | MFI at 1 µg/ml [6]: 1390 MFI | MFI at 10 µg/ml [6]: 1490 MFI | EC50 [7]: 0.9 nM | EC50 [8]: 2 nM | Kd [9]: 3.8 nM | Kd (cyno TIM-3-His6 [10]): 12 nM | Human TIM3 KD Ratio to Parent [11]: 1
B1: Parental Antibody 3903E11 (VL1.0, VH1.0) (antibody, human IgG1, lambda)
heavy: not shown
light: SYELTQPRSVSGSPGQSVTISCTGTSSDVGGYNYVSWYQQHPGKAPKLMIFDVSKRPSGVPDRFSGSKSGNTASLTISGLQAEDEADYYCSSYADSVVFGGGTKVTVLGQPKAAPSVTLFPPSSEELQANKATLVCLISDFYPGAVTVAWKADSSPVKAGVETTTPSKQSNNKYAASSYLSLTPEQWKSHKSYSCQVTHEGSTVEKTVAPTECS
notes: Human IgG1 (IgG1m3), lambda light chain; also called 3903E11 (VH1.0, VL1.0)

Kd [12]: 6.2 nM | Kd [13]: 5.7 nM | Kd (FcRn): 850 nM | binding result (FCγRI (CD64) [14]): no binding (tested: 100 nM to 1.56 nM) | binding result (FCγRIIa (CD32a)_H131 [15]): no binding (tested: 4000 nM to 62.5 nM) | binding result (FCγRIIIa (CD16a)_V158 [16]): no binding (tested: 4000 nM to 62.5 nM) | IC50 [17]: 7.46 nM | IC50 [18]: 0.353 nM and 0.053 µg/mL
B2: anti-TIM-3-3903E11(VL1.3,VH1.2)-IgG2h(FN-AQ,322A)-delK (antibody)
heavy: not shown
light: QSALTQPRSVSGSPGQSVTISCTGTSSDVGGYNYVSWYQQHPGKAPKLMIYDVSKRPSGVPDRFSGSKSGNTASLTISGLQAEDEADYYCSSYADSVVFGGGTKVTVLGQPKAAPSVTLFPPSSEELQANKATLVCLISDFYPGAVTVAWKADSSPVKAGVETTTPSKQSNNKYAASSYLSLTPEQWKSHKSYSCQVTHEGSTVEKTVAPTECS
notes: Effector-negative engineered IgG2 with IgG1 hinge (C220S), F296A, N297Q, K322A, C-terminal Lys deleted; lambda light chain; also called M6903; copies: 2 + 2

EC50 [19]: 0.111 µg/mL | EC50 (read off the curve) [20]: ~0.04 µg/mL | EC50 (read off the curve) [21]: ~0.07 µg/mL
B3: anti-TIM-3 (A16-019-1) (antibody)
heavy: not shown
light: QSALTQPRSVSGSPGQSVTISCTGTSSDVGGYNYVSWYQQHPGKAPKLMIYDVSKRPSGVPDRFSGSKSGNTASLTISGLQAEDEADYYCSSYADSVVFGGGTKVTVLGQPKAAPSVTLFPPSSEELQANKATLVCLISDFYPGAVTVAWKADSSPVKAGVETTTPSKQSNNKYAASSYLSLTPEQWKSHKSYSCQVTHEGSTVEKTVAPTECS
notes: Said to be identical to M6903 but produced in Expi293F, not CHOK1SV, cells

Kd [1]: 1.6 nM | Kd (cyno TIM-3-His6 [2]): 5.3 nM | EC50 [22]: 0.01 nM | EC50 (cyno TIM-3-His6 [23]): 0.02 nM | EC50 [24]: 0.01 nM | Kd (FCγRIIa (CD32a)_H131 [25]): 630 nM | Kd (FCγRIIIa (CD16a)_V158 [26]): 100 nM | Kd (FcRn): 805 nM | MFI at 0.1 µg/ml [6]: 140 MFI | MFI at 1 µg/ml [6]: 1310 MFI | MFI at 10 µg/ml [6]: 1910 MFI | EC50 [27]: 2.6 nM | Kd [28]: 2.4 nM | Kd (cyno TIM-3-His6 [29]): 14 nM | Kd [30]: 11 nM | Kd (FCγRI (CD64) [31]): 1.7 nM | IC50 [32]: 2.4 nM
B4: 3903E11 (VL1.3,VH1.2) IgG1 (antibody)
heavy: not shown
light: QSALTQPRSVSGSPGQSVTISCTGTSSDVGGYNYVSWYQQHPGKAPKLMIYDVSKRPSGVPDRFSGSKSGNTASLTISGLQAEDEADYYCSSYADSVVFGGGTKVTVLGQPKAAPSVTLFPPSSEELQANKATLVCLISDFYPGAVTVAWKADSSPVKAGVETTTPSKQSNNKYAASSYLSLTPEQWKSHKSYSCQVTHEGSTVEKTVAPTECS
notes: also called 3903E11 (VH1.2, VL1.3); anti-TIM3-3903E11(VL1.3, VH1.2)-IgG1; copies: 2 + 2
